Patent publication US11491212

B1: FIXa-Y155F/K228N/K247N/N249S/R318Y/R338E/T343R/R403E/E410N (protein)
chain 1: not shown
chain 2: not shown
B2: FIXa Y155F/K247N/N249S/R338E/T343R/R403E (protein)
chain 1: not shown
chain 2: not shown
B3: FIXa-Y155F/R338E/T343R/R403E (protein)
chain 1: not shown
chain 2: not shown
B4: FIXa K247N/N249S/R338E/T343R/E410N (protein)
chain 1: not shown
chain 2: not shown
B5: FIXa-Y155F/N260S/R318Y/R338E/T343R/R403E/E410N (protein)
chain 1: not shown
chain 2: not shown
B6: FIXa Y155F/K247N/N249S/T343R/R403E/E410N (protein)
chain 1: not shown
chain 2: not shown
B7: FIXa-K228N/K247N/N249S/R318Y/R338E/T343R/R403E/E410N (protein)
chain 1: not shown
chain 2: not shown
B8: FIXa Y155F/K247N/N249S/R338E/T343R/E410N (protein)
chain 1: not shown
chain 2: not shown
B9: FIXa R338E/T343R/E410N (protein)
chain 1: not shown
chain 2: not shown
B10: FIXa K247N/N249S/R338E/T343R/R403E (protein)
chain 1: not shown
chain 2: not shown

Biological target: Factor X, P00742
Sequence (P00742 whole entry, looked up): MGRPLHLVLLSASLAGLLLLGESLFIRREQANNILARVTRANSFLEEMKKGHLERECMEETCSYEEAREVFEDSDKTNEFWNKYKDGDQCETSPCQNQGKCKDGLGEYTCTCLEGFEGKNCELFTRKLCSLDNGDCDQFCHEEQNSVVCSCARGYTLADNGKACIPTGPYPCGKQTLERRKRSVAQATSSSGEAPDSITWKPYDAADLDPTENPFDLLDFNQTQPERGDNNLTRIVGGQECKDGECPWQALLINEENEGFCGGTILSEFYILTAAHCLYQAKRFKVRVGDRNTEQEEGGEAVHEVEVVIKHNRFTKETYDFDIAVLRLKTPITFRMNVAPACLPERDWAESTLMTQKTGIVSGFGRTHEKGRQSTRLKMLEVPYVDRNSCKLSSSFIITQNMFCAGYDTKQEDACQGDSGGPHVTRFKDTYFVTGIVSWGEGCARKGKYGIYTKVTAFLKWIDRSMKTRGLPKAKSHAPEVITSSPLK

Point of comparison: B7, KM 0.0251 µM. Against it:
- B1 — within 1.5-fold, 0.0368 µM
- B3 — within 1.5-fold, 0.0289 µM
- B5 — 1.6-fold higher, 0.0402 µM

Point of comparison: B4, kcat/KM 3.1e+08 M⁻¹ s⁻¹. Against it:
- B1 — within 1.5-fold, 3e+08 M⁻¹ s⁻¹
- B2 — 1.9-fold higher, 5.9e+08 M⁻¹ s⁻¹
- B3 — 1.6-fold lower, 2e+08 M⁻¹ s⁻¹
- B5 — 2.1-fold lower, 1.5e+08 M⁻¹ s⁻¹
- B6 — within 1.5-fold, 2.9e+08 M⁻¹ s⁻¹
- B7 — within 1.5-fold, 4.1e+08 M⁻¹ s⁻¹
- B8 — 1.7-fold lower, 1.8e+08 M⁻¹ s⁻¹
- B9 — 3.3-fold lower, 9.3e+07 M⁻¹ s⁻¹
- B10 — 1.8-fold higher, 5.6e+08 M⁻¹ s⁻¹

Point of comparison: B2, “% of WT kcat/KM” value 1269%. Against it:
- B4 — lower, 676%
- B6 — lower, 635%
- B8 — lower, 391%
- B9 — lower, 201%
- B10 — lower, 1215%
